A word on the IC50: it is the concentration that gives 50% inhibition.

IC50 data for one molecule are collected here from patent US20140018302A1 (published 2014).

In this assay the target is recombinant HDM2 17-125 (UniProt Q00987 17-125). As to the kind of experiment: FP competition with FITC-SAH-p53-8; FIG. 2B; axis prints HDMX, legend says HDM2.

B1: SAH-p53-8 (peptide)
peptide: QSQQTFXNLWRLLXQN
modifications: not fully specified; amino acids at positions S20 and P27 (p53 numbering) replaced with synthetic olefinic residues joined by an i, i+7 hydrocarbon staple; acetyl-capped N-terminus in the competition FP assay
As for B1, the IC50 stood at 216 nM.
